This series in a line: soluble on expression in E. coli; label from the status in PepcDB or PDB records.
As to “MQPASAKWYDRRDYVFIEFCVEDSKDVNVNFEKSKLTFSCLGGSDNFKHLNEIDLFHCIDPNDSKHKRTDRSILCCLRKGESGQSWPRLTKERAKLNWLSVDFNNWKDWEDDSDEDMSNFDRFSEMMNNMGGDEDVDLPEVDGADDDSQDSDDEKMPDLE”, the “soluble on expression in E. coli” value is reported as “not soluble”.

With “MFTAKCAMQNIRNVAIVGSGQMGSGIAQVTASSGFNVMLADVNKKALDRAMKAISQSVTHLSKKQKGTDKEKSDFVTLTMSRIKTCNNVSTAVADADLIIEAAIENIDLKRGIFAQIEQSCKKDSILTTNTSSFLLEDVAKGLQDKTRFGGLHFFNPVPVMKLLEVIRSDDTSDETYATLIKFGTAVGKTTVACKDSPGFIVNRLLIPYFFEAARMYERGDASMTDIDEAMKLGAGHPMGPFELADYIGLDTVKFVMDGWAAKYPEVQLFEASPLVDKLVAEGKLGRKTGDGFYSYKK”, the “soluble on expression in E. coli” value is on record as “not soluble”.

For the sequence “MEEPFEAYRSREVAMKLVEKIREEAKTLDGEIRIMHVCGTHEDTVTRHGIRSLLPENVKVVSGPGCPVCITPVEDIVAMQLIMRKAREEGEEIILTTFGDMYKIPTPMGSFADLKSEGFDVRIVYGIFDTYRIAKENPDKTVVHFSPGFETTTAPAAGMLNVAAQEELENFKIYSVHRLTPPAVEVLLKQGTVFQGLIAPGHVSTIIGVKGWEYLTEKYGIPQVVAGFEPNDVLMAILMLIRMYKEGEARIINEYERAVKYEGNVVAQKMIDKFFEVVDAKWRALGVFPKSGLELRKEWKDFEIRSFYKVEVPKNLPDLEKGCRCGAVLRGLALPTDCPLFGKTCTPRHPVGPCMVSYEGTCQIFYKYGVLF”, the “soluble on expression in E. coli” value is “soluble”.

For “GPGSMTDCWYIPEAVADRRDENRLSPNVPASYEVLGEAGIFYRHFDSEEVNDNIEGFIQPLLKKLNYQSYDVVNLSPANLGAEKFETLAEQHFMEHIHEDDEVRLILEGQGYFDVRDINDKWIRLLLKPGDCIVVPAGMYHRFTTDQSKCIKTLRIFKEAPQWIALNRGPEAEEKPARKEYLARLHAPAETAVGAVNGRTIFSLRYPLKLDAELTVITKRLLEQHSKQPLALAIYLTGSTDPTTGESWCPDCVLAKLHVARRFAELQGTYGKEHAIFLQLPVERASYLGNPNFFYRTHPILQLASVPTLLVLSPAKDAKEGGDVQWYDLLDVKVRTCDVDRTDVLNLE”, the “soluble on expression in E. coli” value is listed as “soluble”.

For the sequence “MGSDKIHHHHHHMSKLSNLITQYCPEGVEYKTLGECGKFYGGLTGKSKKDFEDGNSKFITYKNVYSNPALCLDVEDKVRIEPGERQRTLEYGDIVFTGSSETPDECGISSVVAEIPEENLYLNSFCFIFRFDDPSILLPDFAKHLFRSSELRYQIGKTASGVTRYNVSKKLMGKVSFPVPPLEVQREIVRVLDSFTLLTAELTAELTARKQQYEFYRDYLLNGNSDYDICNLGDVCDVVAGGTPSRKVSDYWEDGCIPWLGSTVCKNKKNVDEPTEFITELGLEKSSAKMMKKDTTLIALVGATIGKVAFTTFDVAINQNIAGVYPKDTSKINPSYIYYACTTLYPHFLNLTQGSKLAMANLTFVRGLKISVPPIDVQNHLVNVLDNFESITSDLSIGLPAEIEARKKQYEYYRDALLTYASTGKIIARQTEHN”, the “soluble on expression in E. coli” value is given as “not soluble”.

Take “MTGIYYLYLRQDDPKKATMRKLERFGLAKRVDIKGVGLKLVLTPYADIFLSREDAVLYEKYGLCVIEGSWNKIDSIKSLKFRIERRLPALLAANPVNYGKIGILSSVEATAAALYIIGYWDTAYALLSKFSWGLNFIKLNENPLNEYSTADRSEIKKIEESYFGLEHHHHHH”: the “soluble on expression in E. coli” value is given as “soluble”.

Take “MAHHHHHHMHLDEEYGNRSSSVSCDSSDAASAHSSSSDSASSAGGRQQRQRGNGSGGTETASLLSLPTASHANHAGCSVCGSATSLASRVSLLSTLSQHSAASYLSFISVLRPSITAGSAAGGTGAGGSADGDGAAGAGQQMHESEDGNTNLPLILLEQLALGLHRFMEAYPAELLDRYGLRSVSWSSIARMFATVEKSLVNTTTTAGAAAGAAAAAAPRQANHFPNDQEPPQPLFNLAQDIRYNKGMGYECLGLLFAKVVAPLLDPASSRAIASTSWSPPQQHQLRRSTGEATGTEDDDGSGGGARSDGGGTQEEFFANAAAVAATVGRAVLTIDDDPATRASVEAALSRCLTAYETVAPQVVDMNLPTILRLAARTAATSAGSTTSLRASASPSSLSIVLVDFVRDITARLGRGNDLPHLVDALLQRGDFAANASATAAASAVVDGSGDKASTIRSLRAVFSLPPVRQAVMEAAGTSLDPESLLRRLSGVAAELEEDNKSSSSSSSAQDEKQVELSSTARSCRKHDDARVQRMLLALELMEALLAGVTPTCVSASAVLEHTTQLELLLSSSFMAAVEELKGVCGEALDDRRALMIQHMYTIRQCRAVTILCLQDLGTQQVHDYLRMLEDALWQLTSHVGNLVGSLTLAELQPLLRPHPARYGGSEVLAPSPSALEQLQVQLLPSSLILQRPVASARSDRRPGNSRRARRGAP”: the “soluble on expression in E. coli” value was “not soluble”.

For “MSETQNSTSQKAMDEDNKAASQTMPNTQDKNYEDELTQVALALVEDVINYAVKIVEEERNPLKNIKWMTHGEFTVEKGLKQIDEYFSKCVSKKCWAHGVEFVERKDLIHSFLYIYYVHWSISTADLPVARISAGTYFTMKVSKTKPPDAPIVVSYVGDHQALVHRPGMVRFRENWQKNLTDAKYSFMESFPFLFNRVLEHHHHHH”, the “soluble on expression in E. coli” value is “soluble”.

Turning to “MGSDKIHHHHHHMDGINTLRYSDLFLAMYFDGGKSCLHRNHSHVLVYVYSGEMVIDEKGQITRLHKGECAFIRKDFSVQMTKQAWNGEQFKAIFLMFTMKFLRDFYSKLDRNTLPKDAKRDQVSLYKLPSNRPDIVSLFESMTPYFNSKIQPTDELLQLKMVEGVYVLLNTDKNLYASIFDFTDPWKIDILEFMERNYMNDISMEEIANYTGRSLSTFKRDFKKCSALSPREWLIRRRLEAAHGLIRKGGRKVSEICFEVGFKNLSHFSKIYKIAYGVPPTEDI”, the “soluble on expression in E. coli” value is listed as “not soluble”.

For the sequence “GGRLLGALCVFKDITDAVELAEEVTNLKQVRTMLEAIIQSSDEAISVVDENGIGLLINKAYTKMTGLSEKEVIGKPANTDISEGESMHLKVLETRRPVRGVRMKVGPNEKEVIVNVAPVIVDG”, the “soluble on expression in E. coli” value is reported as “not soluble”.

Regarding “MAHHHHHHMDSLYFIGKAQFHQLATHISLYHEDMSDGYKHLSTDAVMAVGLKPHKFTYWNVPMMSGYLGKTVPLDIHGGYVMIDEEKVMPMATSYGMLRYALLTSAVRAKEGGRWRYDFMTMNSTLAIGTAAGLGLLSFGRQRIGWIRRHPIGSVMASFVACLTTTVIARQGIKALGIGIVQAQNSHKRALNCLHCVDCLEDVNTYTLKQIEELKAQQIPQQAGMPPPPEEYVRRFKKGVEMQCRLLETDMEEVRLIRKWAGASLCDVHQHLRDDPMGYKEPHGLVLLASDRARAAERPPLATMPDDKKGIRPAKS”, the “soluble on expression in E. coli” value is recorded as “not soluble”.

Take “MGDNLTDLPGVGPSTAEKLVEAGYIDFMKIATATVGELTDIEGISEKAAAKMIMGARDLCDLGFKSGIDLLKQRSTVWKLSTSSSELDSVLGGGLESQSVTEFAGVFGSGKTQIMHQSCVNLQNPEFLFYDEEAVSKGEVAQPKAVYIDTDGTFRPERIMQMAEHAGIDGQTVLDNTFVARAYNSDMQMLFAEKIEDLIQEGNNIKLVVIDSLTSTFRNEYTGRGKLAERQQKLGRHMATLNKLADLFNCVVLVTNQVSAKPDAFFGMAEQAIGGHIVGHAATFRFFVRKGKGDKRVAKLYDSPHLPDAEAIFRITEKGIQD”: the “soluble on expression in E. coli” value is recorded as “soluble”.

Regarding “MREFGEKIKRLRLAKKISRSEFCGDESELSIRQLIRIENGESRPILTKLKYIAERLGVEDYKLMPSYIELDKEYLELKYFLMRTPTYEDETIAQKKESVFDKIFEEYYDRLPEEERFIIPNYSYLALTNYTVQKLPEKLVEILSFW”, the “soluble on expression in E. coli” value was “not soluble”.

For the sequence “MQYVKIKDSIVEQIEAGMLSPRQKLPAERKLAESFDTTRVTLREALSLLEAEGRIYREDRRGWFISPEPLRYDPTQTLNFPNMAKAQNRVPKTELIAAKGTLANKQSARLLQLQPFSDVFRVDRVRYLEDRPVVYVTNYIRPEIFPNLLSFDLTNSLTDIYREHFGVVYQKTRYRISTSTLLGEVAQALRATSGTPAMVVERTNYNQHGELIDCDIEYWRHDAISIESVAELNQ”, the “soluble on expression in E. coli” value is given as “not soluble”.

On to “MSLSLKIALISQNENLLNLFPKLALEKNFIPITKTASLTRASKIAFGLQDEVDAIISRGATSDYIKKSVSIPSISIKVTRFDTMRAVYNAKRFGNELALIAYKHSIVDKHEIEAMLGVKIKEFLFSSEDEITTLISKVKTENIKIVVSGKTVTDEAIKQGLYGETINSEGHHHHHH”, for which the “soluble on expression in E. coli” value is recorded as “not soluble”.

Source of the values: the DeepSol protein solubility set.
